Results as given in article PMC8098473, “Structural basis of chitin utilization by a GH20 β-N-acetylglucosaminidase from Vibrio campbellii strain ATCC BAA-1116” (Acta Crystallographica. Section D, Structural Biology, 2021).

Tests used:
Conditions in all cases: 100 mM sodium phosphate pH 7.0, 37°C, 10 min, 0–500 µM substrate
VhGlcNAcase = biological target: T1, VhGlcNAcase (Vibrio harveyi, UniProt D9ISE0, D437A); experiment: colorimetric 4-nitrophenol release at […] nm, Michaelis-Menten fit; assay type: biochemical
T1 construct: full-length nag2 (residues 1-642) plus C-terminal RSRS-His6 (10 extra residues), pQE-60, E. coli M15 (pREP4); 74 kDa expected, 76 kDa by SEC; monomer; EC 3.2.1.52

[1] = system: CC(=O)N[C@H]1[C@H](Oc2ccc([N+](=O)[O-])cc2)O[C@H](CO)[C@@H](O)[C@@H]1O; experiment: purified protein; assay type: biochemical, Vibrio harveyi
purified protein = substrate: CC(=O)N[C@H]1[C@H](Oc2ccc([N+](=O)[O-])cc2)O[C@H](CO)[C@@H](O)[C@@H]1O; experiment: purified protein

Molecule	Km (VhGlcNAcase) [µM]	Km [1] [µM]	kcat [1] [s⁻¹]	Km (purified protein) [µM]
CC(=O)N[C@H]1[C@H](Oc2ccc([N+](=O)[O-])cc2)O[C@H](CO)[C@@H](O)[C@@H]1O [pNP-GlcNAc, 4-nitrophenyl N-acetyl-β-D-glucosaminide]	390 ± 32			
VhGlcNAcase (Vibrio harveyi; D303A)		302 ± 28	1.4 ± 0.07	
VhGlcNAcase (Vibrio harveyi; D303N)		325 ± 30	1.8 ± 0.08	
VhGlcNAcase (Vibrio harveyi; D437N)		339 ± 47	0.02 ± 0.001	
VhGlcNAcase (Vibrio harveyi; D532A)		153 ± 9	1.6 ± 0.03	
VhGlcNAcase (Vibrio harveyi; E438A)		128 ± 16	0.11 ± 0.005	
VhGlcNAcase (Vibrio harveyi; E438Q)		120 ± 13	0.13 ± 0.005	
VhGlcNAcase (Vibrio harveyi; E584A)		178 ± 20	18 ± 0.7	
VhGlcNAcase (Vibrio harveyi; H373A)		307 ± 31	1.1 ± 0.06	
VhGlcNAcase (Vibrio harveyi) (protein) MGGSEYRVDLVVLSEQKQNCRFGLTFHNLSDQDLNSWGLTFAFDRYILPDSVSNGQLTQIGSFCTLKPEGIVLAANHHYYCEFSIGSNPFRYYSDGFNEAMIDFVVDGQPQRAQVDVTPIVLASPYRERSDIPASLTHAQPLLPKPNHIEVSDHSFTFDEQAGVAIYTDLANSAKAWLLEELQRIHQFTLSSSNSGKIIFKSNPTLDEGAYKLKVSEESIKIEAGSSSGFTHACATLLQLLKRDEATKTMEAVCCSIIDSPRFRYRGMMLDCARHFHSVEQVKRLINLLAHYKLNTFHWHLTDDEGWRVEIKSLPQLTEIGAWRGIDETIEPQYTHLSQRYGGFYTQEEIRDVIAFAEQRGITIIPEIDVPGHCRAAIKSLPHLLIEAEDTTEYRSIQHYNDNVINPALPGSYEFIDKVLEEIAALFPAPYVHIGADEVPNGVWSKSPACQALMEQLGYTDYKELQGHFLRHAEDKLRKLGKRMLGWEEAQHGNKVSKDTVIYSWLSEEAALNCARQGFDVVLQPAQTTYLDMTQDYAPEEPGVDWANPLPLEKAYNYEPLAEVPADDPIRKRIWGIQTALWCEIINNPSRMDYMIFPRLTAMAEACWTEKQHRDWTDYLSRLKGHLPLLDLQGVNYRKPWK				92 ± 6
